We go through one substance from PMC5856539.

The target in the assay is GFP-tagged Ska complex (Ska complex^Ska3-GFP) (human) (UniProt Q96BD8). Put plainly: SEC-MALS.

“GFP-tagged Ska complex (Ska complex^Ska3-GFP) (from UniProt Q96BD8;Q8WVK7;Q8IX90)”: the stoichiometry N is 2.
